Measured values taken from publication PMC4429956.

Tests used:
[1] = biological target: fluorescent H3K4me3 peptide; experiment: fluorescence polarisation; increasing concentrations of TAF3 PHD finger with fluorescent H3K4me3 peptide, with a 5-fold molar excess of PI5P; apparent KD
[2] = biological target: fluorescent H3K4me3 peptide; experiment: fluorescence polarisation; increasing concentrations of TAF3 PHD finger with fluorescent H3K4me3 peptide, no PI; apparent KD

B1: GST-TAF3 PHD finger, wild type (domain or fragment)
chain: IWICPGCNKPDDGSPMIGCDDCDDWYHWPCVGIMTAPPEEMQWFCPKCANKKKDKKHKKRKHRAH
modifications: not checked
Kd [1]: 3500 nM | Kd [2]: 1000 nM
